Data as given in the supplement of paper PMC5998384.

Columns and labels:
HeLa Kyoto [1] = experiment: solubility in G1/S (NP-40 vs SDS abundance) (log2 ratio); higher = more soluble; conditions: cell cycle stage: G1/S
HeLa Kyoto [2] = experiment: solubility change mitosis vs G1/S (difference of NP-40 vs SDS log2 ratios) (log2 ratio difference); higher = more soluble in mitosis
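Wherever solubility change mitosis vs G1/S (difference of NP-40 vs SDS log2 ratios) is given: synchronized HeLa Kyoto cells (double thymidine block for G1/S, nocodazole release for mitosis), protein amounts in NP-40 versus SDS lysates quantified by mass spectrometry, three biological replicates.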
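Wherever solubility in G1/S (NP-40 vs SDS abundance) is given: HeLa Kyoto cells arrested at G1/S by double thymidine block, proteins quantified by TMT10plex mass spectrometry in mild NP-40 versus SDS extracts, three biological replicates.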

Sequence of DNLZ (chain, as listed by the source): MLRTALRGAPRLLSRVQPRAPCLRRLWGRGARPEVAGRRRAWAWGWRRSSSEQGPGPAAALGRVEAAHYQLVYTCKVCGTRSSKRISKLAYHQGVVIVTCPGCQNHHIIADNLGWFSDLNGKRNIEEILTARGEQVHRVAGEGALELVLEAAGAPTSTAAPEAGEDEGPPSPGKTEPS

## MANETQKVGAIHFPFPFTPYSIQEDFMAELYRVLEAGKIGIFESPTGTGKSLSLICGALSWLRDFEQKKREEEARLLETGTGPLHDEKDESLCLSSSCEGAAGTPRPAGEPAWVTQFVQKKEERDLVDRLKAEQARRKQREERLQQLQHRVQLKYAAKRLRQEEEERENLLRLSREMLETGPEAERLEQLESGEEELVLAEYESDEEKKVASRVDEDEDDLEEEHITKIYYCSRTHSQLAQFVHEVKKSPFGKDVRLVSLGSRQNLCVNEDVKSLGSVQLINDRCVDMQRSRHEKKKGAEEEKPKRRRQEKQAACPFYNHEQMGLLRDEALAEVKDMEQLLALGKEARACPYYGSRLAIPAAQLVVLPYQMLLHAATRQAAGIRLQDQVVIIDEAHNLIDTITGMHSVEVSGSQLCQAHSQLLQYVERYGKRLKAKNLMYLKQILYLLEKFVAVLGGNIKQNPNTQSLSQTGTELKTINDFLFQSQIDNINLFKVQRYCEKSMISRKLFGFTERYGAVFSSREQPKLAGFQQFLQSLQPRTTEALAAPADESQASTLRPASPLMHIQGFLAALTTANQDGRVILSRQGSLSQSTLKFLLLNPAVHFAQVVKECRAVVIAGGTMQPVSDFRQQLLACAGVEAERVVEFSCGHVIPPDNILPLVICSGISNQPLEFTFQKRELPQMMDEVGRILCNLCGVVPGGVVCFFPSYEYLRQVHAHWEKGGLLGRLAARKKIFQEPKSAHQVEQVLLAYSRCIQACGQERGQVTGALLLSVVGGKMSEGINFSDNLGRCVVMVGMPFPNIRSAELQEKMAYLDQTLSPRPGTPREGSGGEPVHEGRQPVHRQGHQAPEGFCQRSAPGPAICPAPCPGQAAGLDPSPCGGQSYLWPRHCCCAEVSPGEVGLFLMGNHTTAWRRALPLSCPLETVFVVGVVCGDPVTKVKPRRRVWSPECCQDPGTGVSSRRRKWGNPE [DDX11]
HeLa Kyoto [1]
  solubility in G1/S (log2): -0.119
HeLa Kyoto [2]
  solubility change mitosis (log2): -0.0575

## MELPAVNLKVILLGHWLLTTWGCIVFSGSYAWANFTILALGVWAVAQRDSIDAISMFLGGLLATIFLDIVHISIFYPRVSLTDTGRFGVGMAILSLLLKPLSCCFVYHMYRERGGELLVHTGFLGSSQDRSAYQTIDSAEAPADPFAVPEGRSQDARGY [AGTRAP]
HeLa Kyoto [1]
  solubility in G1/S (log2): 0.0387
HeLa Kyoto [2]
  solubility change mitosis (log2): -0.217

## DNLZ
HeLa Kyoto [1]
  solubility in G1/S (log2): -0.145
HeLa Kyoto [2]
  solubility change mitosis (log2): 0.242

## MEAPEGGGGGPAARGPEGQPAPEARVHFRVARFIMEAGVKLGMRSIPIATACTIYHKFFCETNLDAYDPYLIAMSSIYLAGKVEEQHLRTRDIINVSNRYFNPSGEPLELDSRFWELRDSIVQCELLMLRVLRFQVSFQHPHKYLLHYLVSLQNWLNRHSWQRTPVAVTAWALLRDSYHGALCLRFQAQHIAVAVLYLALQVYGVEVPAEVEAEKPWWQVFNDDLTKPIIDNIVSDLIQIYTMDTEIP [FAM58A]
HeLa Kyoto [1]
  solubility in G1/S (log2): -0.46
HeLa Kyoto [2]
  solubility change mitosis (log2): 0.235

## MALLSRPALTLLLLLMAAVVRCQEQAQTTDWRATLKTIRNGVHKIDTYLNAALDLLGGEDGLCQYKCSDGSKPFPRYGYKPSPPNGCGSPLFGVHLNIGIPSLTKCCNQHDRCYETCGKSKNDCDEEFQYCLSKICRDVQKTLGLTQHVQACETTVELLFDSVIHLGCKPYLDSQRAACRCHYEEKTDL [PLA2G12A]
HeLa Kyoto [1]
  solubility in G1/S (log2): -0.604
HeLa Kyoto [2]
  solubility change mitosis (log2): 0.347

## MSSESKEQHNVSPRDSAEGNDSYPSGIHLELQRESSTDFKQFETNDQCRPYHRILIERQEKSDTNFKEFVIKKLQKNCQCSPAKAKNMILGFLPVLQWLPKYDLKKNILGDVMSGLIVGILLVPQSIAYSLLAGQEPVYGLYTSFFASIIYFLLGTSRHISVGIFGVLCLMIGETVDRELQKAGYDNAHSAPSLGMVSNGSTLLNHTSDRICDKSCYAIMVGSTVTFIAGVYQVAMGFFQVGFVSVYLSDALLSGFVTGASFTILTSQAKYLLGLNLPRTNGVGSLITTWIHVFRNIHKTNLCDLITSLLCLLVLLPTKELNEHFKSKLKAPIPIELVVVVAATLASHFGKLHENYNSSIAGHIPTGFMPPKVPEWNLIPSVAVDAIAISIIGFAITVSLSEMFAKKHGYTVKANQEMYAIGFCNIIPSFFHCFTTSAALAKTLVKESTGCHTQLSGVVTALVLLLVLLVIAPLFYSLQKSVLGVITIVNLRGALRKFRDLPKMWSISRMDTVIWFVTMLSSALLSTEIGLLVGVCFSIFCVILRTQKPKSSLLGLVEESEVFESVSAYKNLQIKPGIKIFRFVAPLYYINKECFKSALYKQTVNPILIKVAWKKAAKRKIKEKVVTLGGIQDEMSVQLSHDPLELHTIVIDCSAIQFLDTAGIHTLKEVRRDYEAIGIQVLLAQCNPTVRDSLTNGEYCKKEEENLLFYSVYEAMAFAEVSKNQKGVCVPNGLSLSSD [SLC26A2]
HeLa Kyoto [1]
  solubility in G1/S (log2): -0.0844
HeLa Kyoto [2]
  solubility change mitosis (log2): -0.0606

## MAGLGLGSAVPVWLAEDDLGCIICQGLLDWPATLPCGHSFCRHCLEALWGARDARRWACPTCRQGAAQQPHLRKNTLLQDLADKYRRAAREIQAGSDPAHCPCPGSSSLSSAAARPRRRPELQRVAVEKSITEVAQELTELVEHLVDIVRSLQNQRPLSESGPDNELSILGKAFSSGVDLSMASPKLVTSDTAAGKIRDILHDLEEIQEKLQESVTWKEAPEAQMQGELLEAPSSSSCPLPDQSHPALRRASRFAQWAIHPTFNLKSLSCSLEVSKDSRTVTVSHRPQPYRWSCERFSTSQVLCSQALSSGKHYWEVDTRNCSHWAVGVASWEMSRDQVLGRTMDSCCVEWKGTSQLSAWHMVKETVLGSDRPGVVGIWLNLEEGKLAFYSVDNQEKLLYECTISASSPLYPAFWLYGLHPGNYLIIKQVKV [RNF135]
HeLa Kyoto [1]
  solubility in G1/S (log2): 0.0392
HeLa Kyoto [2]
  solubility change mitosis (log2): -0.147

## MPYVDRQNRICGFLDIEEHENSGKFLRRYFILDTQANCLLWYMDNPQNLAMGAGAVGALQLTYISKVSIATPKQKPKTPFCFVINALSQRYFLQANDQKDMKDWVEALNQASKITVPKGGGLPMTTEVLKSLAAPPALEKKPQVAYKTEIIGGVVVHTPISQNGGDGQEGSEPGSHTILRRSQSYIPTSGCRASTGPPLIKSGYCVKQGNVRKSWKRRFFALDDFTICYFKCEQDREPLRTIFLKDVLKTHECLVKSGDLLMRDNLFEIITSSRTFYVQADSPEDMHSWIKEIGAAVQALKCHPRETSFSRSISLTRPGSSSLSSGPNSILCRGRPPLEEKKALCKAPSVASSWQPWTPVPQAGEKLLPPGDTSEDSLFTPRPGEGSAPGVLPSSRIRHRSEPQHPKEKPFMFNLDDENIRTSDV [PLEKHA2]
HeLa Kyoto [1]
  solubility in G1/S (log2): 0.121
HeLa Kyoto [2]
  solubility change mitosis (log2): -0.19

## MLLGLAAMELKVWVDGIQRVVCGVSEQTTCQEVVIALAQAIGQTGRFVLVQRLREKERQLLPQECPVGAQATCGQFASDVQFVLRRTGPSLAGRPSSDSCPPPERCLIRASLPVKPRAALGCEPRKTLTPEPAPSLSRPGPAAPVTPTPGCCTDLRGLELRVQRNAEELGHEAFWEQELRREQAREREGQARLQALSAATAEHAARLQALDAQARALEAELQLAAEAPGPPSPMASATERLHQDLAVQERQSAEVQGSLALVSRALEAAERALQAQAQELEELNRELRQCNLQQFIQQTGAALPPPPRPDRGPPGTQGPLPPAREESLLGAPSESHAGAQPRPRGGPHDAELLEVAAAPAPEWCPLAAQPQAL [RASSF7]
HeLa Kyoto [1]
  solubility in G1/S (log2): 0.299
HeLa Kyoto [2]
  solubility change mitosis (log2): 0.0497

## MEPKVAELKQKIEDTLCPFGFEVYPFQVAWYNELLPPAFHLPLPGPTLAFLVLSTPAMFDRALKPFLQSCHLRMLTDPVDQCVAYHLGRVRESLPELQIEIIADYEVHPNRRPKILAQTAAHVAGAAYYYQRQDVEADPWGNQRISGVCIHPRFGGWFAIRGVVLLPGIEVPDLPPRKPHDCVPTRADRIALLEGFNFHWRDWTYRDAVTPQERYSEEQKAYFSTPPAQRLALLGLAQPSEKPSSPSPDLPFTTPAPKKPGNPSRARSWLSPRVSPPASPGP [MMACHC]
HeLa Kyoto [1]
  solubility in G1/S (log2): 0.0435
HeLa Kyoto [2]
  solubility change mitosis (log2): 0.0886

## MAPDPWFSTYDSTCQIAQEIAEKIQQRNQYERKGEKAPKLTVTIRALLQNLKEKIALLKDLLLRAVSTHQITQLEGDRRQNLLDDLVTRERLLLASFKNEGAEPDLIRSSLMSEEAKRGAPNPWLFEEPEETRGLGFDEIRQQQQKIIQEQDAGLDALSSIISRQKQMGQEIGNELDEQNEIIDDLANLVENTDEKLRNETRRVNMVDRKSASCGMIMVILLLLVAIVVVAVWPTN [STX8]
HeLa Kyoto [1]
  solubility in G1/S (log2): 0.624
HeLa Kyoto [2]
  solubility change mitosis (log2): -0.0243

## MAAVEAAAEPVTVVAAVGPKAKDEEEEEEEPLPPCEAVRWAPVGAVAEARPGATAFLEEATAEEPGAAPGSPPDSPGRTLRRLRAERRRLDSALLALSSHFAQVQFRLRQVVRGAPAEQQRLLRELEDFAFRGCPHVLGYEGPGDPASDEGDGLPGDRPWLRGEDQSEQEKQERLETQREKQKELILQLKTQLDDLETFAYQEGSYDSLPQSVVLERQRVIIDELIKKLDMNLNEDISSLSTEELRQRVDAAVAQIVNPARVKEQLVEQLKTQIRDLEMFINFIQDEVGSPLQTGGGHCECKAGGKTGNGCSRTGSSRTPPGNSKTKAEDVKKVRETGLHLMRRALAVLQIFAVSQFGCATGQIPPTLWQRVQADRDYSPLLKRLEVSVDRVKQLALRQQPHDHVITSANLQDLSLGGKDELTMAVRKELTVAVRDLLAHGLYASSPGMSLVMAPIACLLPAFSSAPEAMHPWELFVKYYHAKNGRAYVESPARKLSQSFALPVTGGTVVTPKQSLLTAIHMVLTEHDPFKRSADSELKALVCMALNEQRLVSWVNLICKSGSLIEPHYQPWSYMAHTGFESALNLLSRLSSLKFSLPVDLAVRQLKNIKDAF [RUNDC1]
HeLa Kyoto [1]
  solubility in G1/S (log2): -0.124
HeLa Kyoto [2]
  solubility change mitosis (log2): -0.215

## MEEVTTCSFNSPLFRQEDDRGITYRIPALLYIPPTHTFLAFAEKRSTRRDEDALHLVLRRGLRIGQLVQWGPLKPLMEATLPGHRTMNPCPVWEQKSGCVFLFFICVRGHVTERQQIVSGRNAARLCFIYSQDAGCSWSEVRDLTEEVIGSELKHWATFAVGPGHGIQLQSGRLVIPAYTYYIPSWFFCFQLPCKTRPHSLMIYSDDLGVTWHHGRLIRPMVTVECEVAEVTGRAGHPVLYCSARTPNRCRAEALSTDHGEGFQRLALSRQLCEPPHGCQGSVVSFRPLEIPHRCQDSSSKDAPTIQQSSPGSSLRLEEEAGTPSESWLLYSHPTSRKQRVDLGIYLNQTPLEAACWSRPWILHCGPCGYSDLAALEEEGLFGCLFECGTKQECEQIAFRLFTHREILSHLQGDCTSPGRNPSQFKSN [NEU3]
HeLa Kyoto [1]
  solubility in G1/S (log2): -0.0555
HeLa Kyoto [2]
  solubility change mitosis (log2): -0.0358

## MDEQPRLMHSHAGVGMAGHPGLSQHLQDGAGGTEGEGGRKQDIGDILQQIMTITDQSLDEAQARKHALNCHRMKPALFNVLCEIKEKTVLSIRGAQEEEPTDPQLMRLDNMLLAEGVAGPEKGGGSAAAAAAAAASGGAGSDNSVEHSDYRAKLSQIRQIYHTELEKYEQACNEFTTHVMNLLREQSRTRPISPKEIERMVSIIHRKFSSIQMQLKQSTCEAVMILRSRFLDARRKRRNFNKQATEILNEYFYSHLSNPYPSEEAKEELAKKCGITVSQVSNWFGNKRIRYKKNIGKFQEEANIYAAKTAVTATNVSAHGSQANSPSTPNSAGSSSSFNMSNSGDLFMSVQSLNGDSYQGAQVGANVQSQVDTLRHVISQTGGYSDGLAASQMYSPQGISANGGWQDATTPSSVTSPTEGPGSVHSDTSN [PBX1]
HeLa Kyoto [1]
  solubility in G1/S (log2): 0.177
HeLa Kyoto [2]
  solubility change mitosis (log2): 0.0731

## MRRSRSSAAAKLRGQKRSGASGASAAPAASAAAALAPSATRTRRSASQAGSKSQAVEKPPSEKPRLRRSSPRAQEEGPGEPPPPELALLPPPPPPPPTPATPTSSASNLDLGEQRERWETFQKRQKLTSEGAAKLLLDTFEYQGLVKHTGGCHCGAVRFEVWASADLHIFDCNCSICKKKQNRHFIVPASRFKLLKGAEHITTYTFNTHKAQHTFCKRCGVQSFYTPRSNPGGFGIAPHCLDEGTVRSMVTEEFNGSDWEKAMKEHKTIKNMSKE [CENPV]
HeLa Kyoto [1]
  solubility in G1/S (log2): -2.01
HeLa Kyoto [2]
  solubility change mitosis (log2): 0.822
